Test results reported in publication PMC5422877.

What was measured:
[1] = biological target: T1, MqsA-CHis (Pseudomonas putida KT2440) (UniProt Q88F94); experiment: EMSA; conditions: 10 mM HEPES pH 7.3, 20 mM KCl, 1 mM MgCl2, 5% glycerol, NP-40, poly dI-dC, 0.05 pmol biotin probe in 20 ul, 25 C, 1 h
T1 sequence: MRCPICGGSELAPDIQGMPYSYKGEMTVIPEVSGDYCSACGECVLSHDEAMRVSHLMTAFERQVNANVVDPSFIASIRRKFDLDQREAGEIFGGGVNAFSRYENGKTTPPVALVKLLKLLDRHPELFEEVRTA

[2] = biological target: MqsA-CHis;MqsR (Pseudomonas putida KT2440;Pseudomonas putida KT2440) (UniProt Q88F94+Q88F93); experiment: EMSA; conditions: 10 mM HEPES pH 7.3, 20 mM KCl, 1 mM MgCl2, 5% glycerol, NP-40, poly dI-dC, 0.05 pmol biotin probe in 20 ul, 25 C, 1 h

“CTATTAGCCAAATTTAACCTGGAAGGTTAATTTCTCATGGAAAAGAGAATGCCTCATTGCCCGCTGGAGCGGGTAAAAGCCCTGGCTGCGGCAAGGCGAATCCGCCCTACGGGTGCTGCATTGAAAGGCG (double strand) [PmqsRA]” was tested, and the binding [1] was “binds” and the binding [2] was “no binding”.
